# In paper PMC8324831, “A synthetic nanobody targeting RBD protects hamsters from SARS-CoV-2 infection” (Nature Communications, 2021):
# Where a chain is given by its changes, count along the chain named.
# B1: sybody MR4 (VHH)
# VHH: QVQLVESGGGLVQAGGSLRLSCAASGFPMYAWEMAWYRQAPGKEREWVAAIRSMGVHTHYSDSVKGRFTISRDNAKNTVYLQMNSLKPEDTAVYYCNVKDFGGHQAYYDYWGQGTQVTVS
# B2: sybody SR4 (VHH)
# VHH: QVQLVESGGGLVQAGGSLRLSCAASGFPVYSWNMWWYRQAPGKEREWVAAIESHGDSTRYADSVKGRFTISRDNAKNTVYLQMNSLKPEDTAVYYCYVWVGHTYYGQGTQVTVS
# B3: sybody MR3 (VHH)
# VHH: QVQLVESGGGLVQAGGSLRLSCAASGFPVNAHFMYWYRQAPGKEREWVAAIYSYGRTLYADSVKGRFTISRDNAKNTVYLQMNSLKPEDTAVYYCNVKDYGAASWEYDYWGQGTQVTVS
# B4: sybody LR1 (VHH)
# VHH: QVQLVESGGGSVQAGGSLRLSCAASGSISSITYLGWFRQAPGKEREGVAALITDSGRTYYADSVKGRFTVSLDNAKNTVYLQMNSLKPEDTALYYCAAAEWGYEWPLYYASSWYWGQGTQVTVS
# B5: sybody LR5 (VHH)
# VHH: B4 VHH with D54S, S55N, E100T, E104H, Y108G, Y109A, A110W, S111D, S112Y
# B6: sybody MR17 (VHH)
# VHH: QVQLVESGGGLVQAGGSLRLSCAASGFPVEVWRMEWYRQAPGKEREGVAAIESYGHGTRYADSVKGRFTISRDNAKNTVYLQMNSLKPEDTAVYYCNVKDDGQLAYHYDYWGQGTQVTVS
# B7: Fc-MR3 (Fc fusion)
# chain: GSSSQVQLVESGGGLVQAGGSLRLSCAASGFPVNAHFMYWYRQAPGKEREWVAAIYSYGRTLYADSVKGRFTISRDNAKNTVYLQMNSLKPEDTAVYYCNVKDYGAASWEYDYWGQGTQVTVSERKCCVECPPCPAPPVAGPSVFLFPPKPKDTLMISRTPEVTCVVVDVSHEDPEVQFNWYVDGVEVHNAKTKPREEQFNSTFRVVSVLTVVHQDWLNGKEYKCKVSNKGLPAPIEKTISKTKGQPREPQVYTLPPSREEMTKNQVSLTCLVKGFYPSDIAVEWESNGQPENNYKTTPPMLDSDGSFFLYSKLTVDKSRWQQGNVFSCSVMHEALHNHYTQKSLSLSPGK
# Tests used:
# [1] = biological target: T1, SARS-CoV-2 S-RBD with Avi-tag and deca-His tag (residues 330-531) (SARS-CoV-2, UniProt P0DTC2, biotin on the Avi tag (BirA) where immobilised on streptavidin sensors or used in ELISA and FSEC); experiment: SEC; details: one partner purified
# [2] = biological target: SARS-CoV-2 S-RBD for crystallization (residues 330-531, Avi-tag and His-tag removed by 3C protease) (SARS-CoV-2, Wuhan-Hu-1 reference …, UniProt P0DTC2); experiment: crystal structure; details: both partners purified
# [3] = biological target: T1, SARS-CoV-2 S-RBD with Avi-tag and …; experiment: ELISA; Myc-tagged sybody from lysate captured by anti-Myc antibody on protein A-coated plate; 50 nM biotinylated RBD added; streptavidin-HRP; room temperature, TBST; details: one partner purified
# [4] = biological target: T1, SARS-CoV-2 S-RBD with Avi-tag and …; experiment: BLI; Octet RED96; biotinylated RBD immobilised on SA sensor; sybodies as analytes; 30 °C; 0.005% Tween 20, 150 mM NaCl, 20 mM Tris HCl pH 8.0; fitted for 1:1 stoichiometry; details: both partners purified
# [5] = biological target: T1, SARS-CoV-2 S-RBD with Avi-tag and …; experiment: cell-based or functional assay
# [6] = biological target: SARS-CoV-2 S-RBD with Avi-tag and deca-His tag (residues 330-531) (SARS-CoV-2, UniProt P0DTC2 330-531); experiment: cell-based or functional assay
binder,measurement,setting,value
B1,binding result,[1],binds
B2,binding result,[2],binds
same,binding result,[3],binds
B3,Kd,[4],1 nM
same,koff,[4],0.00023 s⁻¹
same,IC50 of neutralisation of SARS-CoV-2 S pseudovirus on VeroE6-hACE2 cells (blocks RBD-ACE2),[5],0.42 µg/mL
B4,binding result,[1],binds
B5,binding result,[1],binds
B6,Kd,[4],83.7 nM
B7,IC50 of neutralisation of SARS-CoV-2 S pseudovirus on VeroE6-hACE2 cells (blocks RBD-ACE2),[6],0.042 µg/mL
